Holding throughout (assay): bioluminescence (BRET) titration
Data set [1] concerns LUMID-2C double-lysine (NL2C-2K-thiazole orange). Conditions: apparent, in base pairs; PBS pH 7.4, 0.1% (w/v) BSA, 5% DMSO, 1 nM sensor, 30 min at room temperature, then NanoGlo substrate 1:1000.
The subject of data set [2] is LUMID-3C (NL3C-thiazole orange). Conditions: apparent, in base pairs; Hill n not fixed to 1 per Methods; PBS pH 7.4, 0.1% (w/v) BSA, 5% DMSO, 1 nM sensor, 30 min at room temperature, then NanoGlo substrate 1:1000.
Data set [3] relates to LUMID-2C single-lysine (NL2C-1K-thiazole orange). Conditions: apparent, in base pairs; PBS pH 7.4, 0.1% (w/v) BSA, 5% DMSO, 1 nM sensor, 30 min at room temperature, then NanoGlo substrate 1:1000.
The subject of data set [4] is LUMID-1F (NL1F-thiazole orange conjugate). Conditions: apparent, in base pairs; PBS pH 7.4, 0.1% (w/v) BSA, 5% DMSO, 1 nM sensor, 30 min at room temperature, then NanoGlo substrate 1:1000.
Data set [5] has as its system LUMID-2C double-glycine (NL2C-2G-thiazole orange). Conditions: apparent, in base pairs; PBS pH 7.4, 0.1% (w/v) BSA, 5% DMSO, 1 nM sensor, 30 min at room temperature, then NanoGlo substrate 1:1000.
Data set [6] relates to LUMID-1C (NL1C-thiazole orange conjugate) C166S;G182C. Conditions: apparent, in base pairs; PBS pH 7.4, 0.1% (w/v) BSA, 5% DMSO, 1 nM sensor, 30 min at room temperature, then NanoGlo substrate 1:1000.
Data set [7] concerns LUMID-2C triple-lysine (NL2C-3K-thiazole orange). Conditions: apparent, in base pairs; PBS pH 7.4, 0.1% (w/v) BSA, 5% DMSO, 1 nM sensor, 30 min at room temperature, then NanoGlo substrate 1:1000.
Data set [8] relates to LUMID-2F (NL2F-thiazole orange). Conditions: apparent, in base pairs; Hill n 0.65 per Fig 3 legend; PBS pH 7.4, 0.1% (w/v) BSA, 5% DMSO, 1 nM sensor, 30 min at room temperature, then NanoGlo substrate 1:1000.

Sequence of LUMID-1C (NL1C-thiazole orange conjugate) C166S;G182C (chain, as listed by the source C166S G182C): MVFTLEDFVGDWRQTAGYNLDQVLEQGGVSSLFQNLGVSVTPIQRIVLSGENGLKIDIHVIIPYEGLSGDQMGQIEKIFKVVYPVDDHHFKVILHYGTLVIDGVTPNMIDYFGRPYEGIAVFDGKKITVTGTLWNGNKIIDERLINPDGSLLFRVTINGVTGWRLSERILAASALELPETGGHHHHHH

Consider “sheared salmon sperm dsDNA (~2000 bp fragments)”, for which the Kd in data set [1] is 27 µM; in data set [2], 2.1 µM; in data set [3], 142 µM; in data set [4] it was 4100 µM; in data set [5] it was 279 µM; in data set [6], 3100 µM. For the same substance, the results for the Kd in data set [7] and in data set [8] were 21 µM and 43 µM, respectively.

Values taken from PMC10877566.
